Data on 4 molecules can be found in publication doi:10.1101/2022.03.08.483475 (bioRxiv, 2022).

Read-outs that look alike come from different tables or passages of the source.

B4: MukB (wild type) (natural protein, E. coli, UniProt P22523 1-1486, looked up)
chain: MIERGKFRSLTLINWNGFFARTFDLDELVTTLSGGNGAGKSTTMAAFVTALIPDLTLLHFRNTTEAGATSGSRDKGLHGKLKAGVCYSMLDTINSRHQRVVVGVRLQQVAGRDRKVDIKPFAIQGLPMSVQPTQLVTETLNERQARVLPLNELKDKLEAMEGVQFKQFNSITDYHSLMFDLGIIARRLRSASDRSKFYRLIEASLYGGISSAITRSLRDYLLPENSGVRKAFQDMEAALRENRMTLEAIRVTQSDRDLFKHLISEATNYVAADYMRHANERRVHLDKALEFRRELHTSRQQLAAEQYKHVDMARELAEHNGAEGDLEADYQAASDHLNLVQTALRQQEKIERYEADLDELQIRLEEQNEVVAEAIERQQENEARAEAAELEVDELKSQLADYQQALDVQQTRAIQYNQAIAALNRAKELCHLPDLTADCAAEWLETFQAKELEATEKMLSLEQKMSMAQTAHSQFEQAYQLVVAINGPLARNEAWDVARELLREGVDQRHLAEQVQPLRMRLSELEQRLREQQEAERLLADFCKRQGKNFDIDELEALHQELEARIASLSDSVSNAREERMALRQEQEQLQSRIQSLMQRAPVWLAAQNSLNQLSEQCGEEFTSSQDVTEYLQQLLEREREAIVERDEVGARKNAVDEEIERLSQPGGSEDQRLNALAERFGGVLLSEIYDDVSLEDAPYFSALYGPSRHAIVVPDLSQVTEHLEGLTDCPEDLYLIEGDPQSFDDSVFSVDELEKAVVVKIADRQWRYSRFPEVPLFGRAARESRIESLHAEREVLSERFATLSFDVQKTQRLHQAFSRFIGSHLAVAFESDPEAEIRQLNSRRVELERALSNHENDNQQQRIQFEQAKEGVTALNRILPRLNLLADDSLADRVDEIRERLDEAQEAARFVQQFGNQLAKLEPIVSVLQSDPEQFEQLKEDYAYSQQMQRDARQQAFALTEVVQRRAHFSYSDSAEMLSGNSDLNEKLRERLEQAEAERTRAREALRGHAAQLSQYNQVLASLKSSYDTKKELLNDLQRELQDIGVRADSGAEERARIRRDELHAQLSNNRSRRNQLEKALTFCEAEMDNLTRKLRKLERDYFEMREQVVTAKAGWCAVMRMVKDNGVERRLHRRELAYLSADDLRSMSDKALGALRLAVADNEHLRDVLRMSEDPKRPERKIQFFVAVYQHLRERIRQDIIRTDDPVEAIEQMEIELSRLTEELTSREQKLAISSRSVANIIRKTIQREQNRIRMLNQGLQNVSFGQVNSVRLNVNVRETHAMLLDVLSEQHEQHQDLFNSNRLTFSEALAKLYQRLNPQIDMGQRTPQTIGEELLDYRNYLEMEVEVNRGSDGWLRAESGALSTGEAIGTGMSILVMVVQSWEDESRRLRGKDISPCRLLFLDEAARLDARSIATLFELCERLQMQLIIAAPENISPEKGTTYKLVRKVFQNTEHVHVVGLRGFAPQLPETLPGTDEAPSQAS

The target of series [1] is B4. The experiment in a line: cross-linking.
The target of series [2] is B4. The experiment in a line: co-purification, SDS-PAGE with Coomassie staining.
The target of series [3] is B4. Nature of the series: cross-linking. This is another data set of the same source.
The series “cross-linking” deals with the molecule itself. The experiment in a line: cross-linking.

B1: ParC subunit of topoisomerase IV (natural protein, E. coli, UniProt P0AFI2 1-752, looked up)
chain: MSDMAERLALHEFTENAYLNYSMYVIMDRALPFIGDGLKPVQRRIVYAMSELGLNASAKFKKSARTVGDVLGKYHPHGDSACYEAMVLMAQPFSYRYPLVDGQGNWGAPDDPKSFAAMRYTESRLSKYSELLLSELGQGTADWVPNFDGTLQEPKMLPARLPNILLNGTTGIAVGMATDIPPHNLREVAQAAIALIDQPKTTLDQLLDIVQGPDYPTEAEIITSRAEIRKIYENGRGSVRMRAVWKKEDGAVVISALPHQVSGARVLEQIAAQMRNKKLPMVDDLRDESDHENPTRLVIVPRSNRVDMDQVMNHLFATTDLEKSYRINLNMIGLDGRPAVKNLLEILSEWLVFRRDTVRRRLNYRLEKVLKRLHILEGLLVAFLNIDEVIEIIRNEDEPKPALMSRFGLTETQAEAILELKLRHLAKLEEMKIRGEQSELEKERDQLQGILASERKMNNLLKKELQADAQAYGDDRRSPLQEREEAKAMSEHDMLPSEPVTIVLSQMGWVRSAKGHDIDAPGLNYKAGDSFKAAVKGKSNQPVVFVDSTGRSYAIDPITLPSARGQGEPLTGKLTLPPGATVDHMLMESDDQKLLMASDAGYGFVCTFNDLVARNRAGKALITLPENAHVMPPVVIEDASDMLLAITQAGRMLMFPVSDLPQLSKGKGNKIINIPSAEAARGEDGLAQLYVLPPQSTLTIHVGKRKIKLRPEELQKVTGERGRRGTLMRGLQRIDRVEIDSPRRASSGDSEE
Regarding B1, in the series with MukB (wild type) [1], the binding result is reported as “binds”.

B2: acyl carrier protein (AcpP) found in MukB preparations (natural protein, E. coli, UniProt P0A6A8 1-78, looked up)
chain: MSTIEERVKKIIGEQLGVKQEEVTNNASFVEDLGADSLDTVELVMALEEEFDTEIPDEEAEKITTVQAAIDYINGHQA
With B2, the “stoichiometry N” value in the series with MukB (wild type) [2] was 1 AcpP:MukB.

B3: MukF (wild type) (natural protein, E. coli, UniProt P60293 1-440, looked up)
chain: MSEFSQTVPELVAWARKNDFSISLPVDRLSFLLAVATLNGERLDGEMSEGELVDAFRHVSDAFEQTSETIGVRANNAINDMVRQRLLNRFTSEQAEGNAIYRLTPLGIGITDYYIRQREFSTLRLSMQLSIVAGELKRAADAAEEGGDEFHWHRNVYAPLKYSVAEIFDSIDLTQRLMDEQQQQVKDDIAQLLNKDWRAAISSCELLLSETSGTLRELQDTLEAAGDKLQANLLRIQDATMTHDDLHFVDRLVFDLQSKLDRIISWGQQSIDLWIGYDRHVHKFIRTAIDMDKNRVFAQRLRQSVQTYFDEPWALTYANADRLLDMRDEEMALRDEEVTGELPEDLEYEEFNEIREQLAAIIEEQLAVYKTRQVPLDLGLVVREYLSQYPRARHFDVARIVIDQAVRLGVAQADFTGLPAKWQPINDYGAKVQAHVIDKY
On to B3, for which the binding result with MukB (wild type) [3] is “binds”.
As for B4, the binding result in the series “cross-linking” is reported as “binds”.
